The labels stand for the following.
B1: Serine/threonine-protein kinase STE11 (Saccharomyces cerevisiae), P23561 (parent)
chain: MEQTQTAEGTDLLIGDEKTNDLPFVQLFLEEIGCTQYLDSFIQCNLVTEEEIKYLDKDILIALGVNKIGDRLKILRKSKSFQRDKRIEQVNRLKNLMEKVSSLSTATLSMNSELIPEKHCVIFILNDGSAKKVNVNGCFNADSIKKRLIRRLPHELLATNSNGEVTKMVQDYDVFVLDYTKNVLHLLYDVELVTICHANDRVEKNRLIFVSKDQTPSDKAISTSKKLYLRTLSALSQVGPSSSNLLAQNKGISHNNAEGKLRIDNTEKDRIRQIFNQRPPSEFISTNLAGYFPHTDMKRLQKTMRESFRHSARLSIAQRRPLSAESNNIGDILLKHSNAVDMALLQGLDQTRLSSKLDTTKIPKLAHKRPEDNDAISNQLELLSVESGEEEDHDFFGEDSDIVSLPTKIATPKNWLKGACIGSGSFGSVYLGMNAHTGELMAVKQVEIKNNNIGVPTDNNKQANSDENNEQEEQQEKIEDVGAVSHPKTNQNIHRKMVDALQHEMNLLKELHHENIVTYYGASQEGGNLNIFLEYVPGGSVSSMLNNYGPFEESLITNFTRQILIGVAYLHKKNIIHRDIKGANILIDIKGCVKITDFGISKKLSPLNKKQNKRASLQGSVFWMSPEVVKQTATTAKADIWSTGCVVIEMFTGKHPFPDFSQMQAIFKIGTNTTPEIPSWATSEGKNFLRKAFELDYQYRPSALELLQHPWLDAHII
partner: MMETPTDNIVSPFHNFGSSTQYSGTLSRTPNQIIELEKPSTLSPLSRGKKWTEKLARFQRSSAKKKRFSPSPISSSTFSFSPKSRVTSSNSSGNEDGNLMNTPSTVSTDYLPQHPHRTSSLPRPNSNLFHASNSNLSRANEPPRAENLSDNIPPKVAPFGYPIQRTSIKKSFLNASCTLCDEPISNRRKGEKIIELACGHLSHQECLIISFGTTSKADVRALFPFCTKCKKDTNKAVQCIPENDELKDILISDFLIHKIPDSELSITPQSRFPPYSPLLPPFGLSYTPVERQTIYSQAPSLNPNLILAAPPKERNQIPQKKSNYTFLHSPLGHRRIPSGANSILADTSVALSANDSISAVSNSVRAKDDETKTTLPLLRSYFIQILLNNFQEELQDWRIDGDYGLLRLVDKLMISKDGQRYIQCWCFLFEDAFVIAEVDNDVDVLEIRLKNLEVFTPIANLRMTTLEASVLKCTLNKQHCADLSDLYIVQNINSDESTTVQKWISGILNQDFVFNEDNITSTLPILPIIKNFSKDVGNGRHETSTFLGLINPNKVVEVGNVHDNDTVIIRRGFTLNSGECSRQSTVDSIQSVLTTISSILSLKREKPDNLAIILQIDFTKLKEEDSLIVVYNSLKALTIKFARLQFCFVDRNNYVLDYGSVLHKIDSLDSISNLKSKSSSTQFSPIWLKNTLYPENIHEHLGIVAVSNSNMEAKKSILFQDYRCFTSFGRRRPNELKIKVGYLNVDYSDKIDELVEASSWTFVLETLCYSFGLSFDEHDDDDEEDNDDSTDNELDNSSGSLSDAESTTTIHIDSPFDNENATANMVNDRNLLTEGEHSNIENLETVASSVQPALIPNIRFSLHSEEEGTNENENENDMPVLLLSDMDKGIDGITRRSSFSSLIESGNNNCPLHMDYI
B2: Serine/threonine-protein kinase STE11 (Saccharomyces cerevisiae), P23561 (parent)
chain: B1 chain
partner: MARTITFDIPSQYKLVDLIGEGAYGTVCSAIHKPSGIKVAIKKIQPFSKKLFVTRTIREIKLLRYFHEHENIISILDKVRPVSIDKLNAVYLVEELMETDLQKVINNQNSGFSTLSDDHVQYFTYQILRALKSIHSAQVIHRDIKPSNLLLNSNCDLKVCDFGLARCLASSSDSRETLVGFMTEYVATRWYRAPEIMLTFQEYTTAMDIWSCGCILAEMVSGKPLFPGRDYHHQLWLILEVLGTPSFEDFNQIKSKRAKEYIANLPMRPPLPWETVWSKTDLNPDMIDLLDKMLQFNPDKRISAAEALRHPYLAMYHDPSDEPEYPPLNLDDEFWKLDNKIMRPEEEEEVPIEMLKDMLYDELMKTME
B3: Serine/threonine-protein kinase STE11 (Saccharomyces cerevisiae), P23561 (parent)
chain: B1 chain

One experiment covers variants of B1. The conditions noted are these: with ste5_yeast STE5, P32917.
Regarding P279S, the “effect of a mutation on the interaction” value is reported as “increasing interaction”.

Variants of B2 are the subject of another experiment. The conditions noted are these: with kss1_yeast KSS1, P14681.
P279S: the “effect of a mutation on the interaction” value is reported as “decreasing interaction”.

The next experiment covers variants of B3. The conditions noted are these: with fus3_yeast FUS3, P16892.
Chain of fus3_yeast FUS3, P16892 (P16892 whole entry): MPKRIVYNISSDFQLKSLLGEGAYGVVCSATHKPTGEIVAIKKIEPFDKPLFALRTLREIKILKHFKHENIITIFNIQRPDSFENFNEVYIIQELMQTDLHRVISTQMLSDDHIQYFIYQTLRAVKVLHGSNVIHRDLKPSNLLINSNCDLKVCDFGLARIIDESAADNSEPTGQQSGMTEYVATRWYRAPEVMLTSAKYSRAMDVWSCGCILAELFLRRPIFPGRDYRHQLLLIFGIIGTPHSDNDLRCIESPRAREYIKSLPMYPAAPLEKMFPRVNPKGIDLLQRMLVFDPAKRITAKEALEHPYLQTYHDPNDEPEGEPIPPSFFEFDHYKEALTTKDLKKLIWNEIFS
Turning to P279S, the “effect of a mutation on the interaction” value is “decreasing interaction”.
